# From the nanobody polyreactivity screen of Harvey et al. (2022)
# Assay: yeast display, Sf9 membrane polyspecificity reagent, FACS + sequencing; frameworks hold sequencing errors
# In short: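 Galactose-induced (36–48 hours) yeast carrying a synthetic nanobody display library were exposed to 10% biotinylated, detergent-solubilized Sf9 membrane reagent at 4 °C for 1 hour. FACS followed streptavidin microbead enrichment, using low and high (top ~1%) gates for expression (anti-HA) and reagent binding (streptavidin). Colony PCR, MiSeq 2 × 250 sequencing and CDR-length filtering followed. Labels for polyreactivity reflect the gate of origin.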
row,Sequence,polyreactivity (PSR sort gate)
1,QVQLVESGGGLVQAGGSLRLSCAASGSTFTQNTMGWYRQAPGKERELVAAISWSGTRTYYADSVKGRFTISRDNAKNTVYLQMNSLKPEDTAVYYCAARTHVPAEYDYWGQGTQVTVSS,high polyreactivity
2,QDQLVESGGGLVQAGGSLRLSCAASGRIFRSYAMGWYRQAPGKERELVAAINTGGITYYADSVKGRFTISRDNAKNTVYLQMNSLKPEDTAVYYCNTYILSRMNYWGQCTQVTVSS,high polyreactivity
3,QVQLVESGGCLVQAGGSLRLSCAASGFTFYWYTMGWYRQAPGKERELVAAISRSGGDTDYADSVKGRFTISRDTAKNTVYLQMDSLQPEDTAVYYCNAGYFITHNYKYDYGGQGTQVTVSS,low polyreactivity
4,QVQLVESGGGLVQAGGSLRLSCAASGFTFRANGMGWSRQAPGKERELVAVITSGGTTNYADSVKGRFTISRDNAKNTVYLQMNSLKPEDTAVYYCAVPYEPTSIPERRDYYRADDYWGQGTQVTVSS,low polyreactivity
5,QVQLVESGGGLVQAGGSLRLSCAASGRTFKRYAMGWYRQAPGKERELVAAITFSGGSTYYADSVKGRFTISRDNAKNTVYLQMNSLKPADTAVYYCAAVGEHYPWDYYWGQGTQVTVSS,high polyreactivity
6,QVQLVESGGGLVHAGGSLRLSCAASGIIFRSYAMGWYRQAPGKERELVAGISLSGGSTYYADSVKGLFTISRDNSKNTVYLQMKSLKPEDTAVYYCATRNHYFRALRYGYWGQGTQVTVSS,high polyreactivity
7,QVQLVESGGGLVQAGGSLRLSCAASGRIFFPNPMGWYRQAPGKDREFVAGITVSGGSTYYADSVKGRFTISRDNAKNTVYFQMNSLKPEDTAVYYCGAYWAQGTRYEYRLNYWGQGTLVTVSS,low polyreactivity
8,QGQLVESGGGLVHAGVSLRLSCAASGSTFQPYAMGWNRQAPGKERELVAAINWSGGGTYYADSVKGRFTISRDNAKNTVYLQMNSLKPVDTAVYYCAAEVYTYWALNTWRYDYWGQGTQVTVSS,high polyreactivity
9,QVQLVESGGGLVQAGGSLRLSCAASGSTFDTYAMGWYRPAPGKERELVAGMTRRGGRTYYADSVKGRFTISRDTAKNTVYLQKNSLKPEDTADYYCNAVPQRPVGKLDHWGQGTQVTVSS,high polyreactivity
10,QVQLVESGGGLVQAGGSLRLSCAASGSTSQINAMGWYRQAPGKERELVAAITWSGDSTYYADSVKGRFTISRDNAKNTVYLQMNSLKPEDTAVYYCAAVSRYFSTYLYDYWGQGTQVTVSS,low polyreactivity
11,QVQLVESGGGLVQAGGSLRLSCAASGRIFSYYAMGWYRQAPGKERELVAVISRRGDNTYYADSVKGRFTISRDNAKNTVYLQMNSLKPEDTAVYYCAVQFVFIFYYGYDYWGQGTQVTVSS,high polyreactivity
12,QVQLVESGGGLVQAGGSLRLICAASGRTFNSNVMGRSRQAPGKERELVAAISGSSGSTRYADSVKGRFTISRDNAKNTVYLQMNSLKPEDTEVYYCAAYPLYRRRWTGDYWGQGTQVTVSS,high polyreactivity
13,QVQLVESGGGLVQAGGSLRLSCAASGSIFSYYSMGWYRQAPGKERELVAAITSGDGTNYADSVKGRFTISRDYAKNTVYLQMNSLKPEDTAVYYCAADAVDSYWREDYWGQGTQVTVSS,low polyreactivity
14,QVQLVESGGGLVQAGGSLRLSCAASGRILYLYTMGWYRQAPGKERELVAAISRGGSTYYADSVKGRFTISRDNAKNTVYLQMNSLKPEDTAVYSCAADARGYQFNYWGQGTQVTVSS,low polyreactivity
15,QVQLVESVGGLVQAGGSLRLSCAASGSTLSAYVMGWYRQAPGKERELVAAITRGGNTYYADSVKGRFTISRDNAKNTVYLQMNSLKPEDTAVYYCAARTYVSYCYYTLNYWGQGTQVTVSS,high polyreactivity
16,QVHLVESGGGLVQAGGSLRLSCAASGFTFPWYAMGWYRQAPGKERELVAAINTGGSTYYADSVKGRFSISRDNAKNTVYLQMNSLKPDDTEVYYCATLGRYRYLNTYYWGSHDYWGQGTQVTVSS,high polyreactivity
17,QVPLVESGGGLVQAGGSLRLSCAASGSTLYGYAMGWSSQAPGKERELVAAISYSGGRTFYADSVKGRFTISRDNAKNTVYLQMNSLKPADSAVYYCAAEYTVYVTDWYDYYDWGQGTQVTVAS,low polyreactivity
18,QVQLVESGGGLVQAGGSLRISCAASGRTFALNAMGWYRQAPGKERELVAAISSGGSTYYADSVKGRFTISRDNAKNTVYLQMNSLKPEDTAVYYCAKTSFKYRWSYPVISMDYWGQGTQVTVSS,high polyreactivity
19,QVQLVESGGGLVQAGGSLRLSCAASGSIFYVYTMGWYRQAPGKERELVAAISSSAGSTYYADSVKGRFTISRDNAKNTVYLQMNSLKQEDTAVYYCAAKVRYSLRKYYYWGQGTQVTVSS,high polyreactivity
20,QVQLVESGVGLVQAGGSLRLSCAASGFTFPSYTMGWYRQAPGKERELVAAITSGGITYYADSVKGRFTISRDNANYTVYLQMNSLKPEDTAVYYCAVVNFRTSVYYPYRTMDYWGQGTQVTVSS,high polyreactivity
21,QVQLVESGGGLVQAGGSLRLSCAASGSTFPTYAMGWYRQAPGKERELVAAITRGGRTYYADSVKGRFTISRDNAKNTVYLQMNSLKPEDTAVYYCAAVYYGAAQYNYWGQGTQVTVSS,high polyreactivity

row,Sequence,polyreactivity (PSR sort gate)
1,QVQLVESGGGLVQAGGSLRLSCAASGRIFSHNAMGWYRQAPGKERELVASIRSSSGRTYYADSVKGRITISRDNAKNTVYLQMNSLTPEDTAVYYCAARQYSSKPYLYGYNYWGQGTQVTVSS,high polyreactivity
2,QVQLVESGGGLVQAGGSLRLTCAASGYTFLHYAMGWYRQPPGKERELVAAITHSGTRTYYADSVKGRFTISRDNAKNTVYLQMNSLKPEDTAVHYCAARGYGKYDYWGQGTQVTVSS,high polyreactivity
3,QVQLVESGGGLVQAGGSLRLSCAASGFTFPVNAMGWYRQAPGKERELVAAITSGGRTNYADSVKGRFTISRDNAKNTVYLQMNSLKPEDTAVYYCAAKFGYYWNSRTSGYWGQGTQVTVSS,high polyreactivity
4,QVQLVESAGGLVQAGGSLRLSCAASGRIFQFYAMGWYRQARGKERELVAVITRRGGSTHYADSVKGRFTISRDTAKNTVYLQMNILKPEDTAVYYCAKVPFHFVSPYDYWGQGTQVTVSS,high polyreactivity
5,QVQLVESGGGLVQAGGSLRLSCAASGIIFGDNAMGWYRQAPGKERELVAAISSGGITYYADSVKGRFTISRDNAKNTVYLQMNSLKPEDTAVYYCAAGYYDFWYDYWGQGTQVTVSS,low polyreactivity
6,QVQLLESGGGLVQAGGSLRLSCAASGSIFSYNAMGWYRQAPGTERELVAAITSGDSTNYADSVKGRFTISRDNAKNTVYLQMNSLKPEDTAVYYCAADPVLPAFGYVGTSLGYYWGQGTQVTVSS,low polyreactivity
7,QVQLVESGGGLVQAGGSLRLSCADSASIFRNAMGWYRQAPRKERELVAGIRWSDGSTNYADSVKGRFTISRDNANITVYLQMNSLKPEDTAVYYCAKGAYFARRMYYWGQGTQVTVSS,low polyreactivity
8,QVQLVESGGGLVQAGGSLRLSCAASGRTFGYNAMGWYRQAPGTERELVAGITGTGGTTNYADSVKGRFTISRDNAKNTVYLQMNSLKPEDTAVYYCNKDYDVSSEKEPLGYWGQGTQVTVSS,low polyreactivity
9,QVQLVESGGGLVQAGGSLRLSCAASGRTFRYAMGWYRQSPGKERELVAGITTRGTSTYYADSVKGRFTISRDNAKNTVYLQMNSLKPEDTAVYYCNARPARAVYIHTPTYRYDYWGQGTQVTVSS,high polyreactivity
10,QVQLVESGGGLVQAGGSLRLSCGASGITFVRYAMGWYRQAPGKERELVAAITTSGGSTYYADSVKGRFTISRDNAKNTVYLQMNSLKPEDTAVYYCAARANAASGTFKYWGQGTQVTVSS,high polyreactivity
11,QVQLVESGGGLVQAGGSLRLSCAASGFTFFFYAMGWYRQAPGKVRELVAGISQSGGNTNYADSVKGRFTISRDNAKNTVYLQMNSLKPEDTAVYYCAKTRYQYWRVTAFDYWGQGTQVTVSS,low polyreactivity
12,QVQLVESGGGLVQAGGSLRLSCAASGSIFSGYVMGWYRQSPGKESELDAAISYSGGSKYYADSVKGRFTISRDNAKNTVYLQMNSLKPEDTAVYFCAAPGWLSQPRYRGYDYWGQGTQVSVSS,high polyreactivity
13,QVQLVESGGGLVQAGGSLRLSCAASGITFYEYAMGLYRKAPGKERELVAAISDRGGSTYYADSVKGRFTISRDNSKNTVYLQLNSLKPEDTAVYYCAGRNTPAQLDYWGQGTQVTVSS,low polyreactivity
14,QVQLVESGGGLVQAGGSLRLSCASSGNTFTVNAMGWYRQAPGKERELVAAINYSGGSTYYADSVKGRFTISRDNAKNTVYLQMNSLKPEDTAVYYCAASPDELLYEMYYWGQGTQVTVSS,low polyreactivity
15,QVQLVESGGGLVQAGGSLRLSCAASGFIFAYYAMGWYRQAPGKERELVAAISSGGRTYYADSVKGRFTISRDNAKNTVYLQMNSLKPEDTAVYYCAAYYRLDYDYWGQGTQVTVSS,high polyreactivity
16,QVQLVESRRGLVQAGASLPLRCAASVSTLDTYAMGLYRQAPGKERELVAAISRSGNSTYYADSVKGRFTISRDNAKNTVYLQMNSLKPEDTAVYYCAAYGPRVNGEIGREYYYWGQGTQVTVSS,low polyreactivity
17,QVQLVESGGGLVQAGGSLRLSCAASGRTFSIYAMGWYRQAPGKERELVAAISRGVTTYADSVKGRFTISRDNAKNTVYLQMNSLKPEDTAVYYCNARTVVYVRGGYWGQGTQVTVSS,low polyreactivity
18,QVQLVESGGGLVQAGGSLRLSCAASGRTFNGYAMGWSRQAPGKERELVAALTGSVGSTYYADSVKGRFTISRDNAKNPGELQLNSLKPDDTAVYYCATRWKATRARYDYWGQGTQVTVTS,high polyreactivity
19,QVQLVESGGCLVQAGRSHRLSCAASGRIFYGYALGWYRQAPGKERELVAAITRSSSTYYADSVKGRFTISRDNAKNTVYLQMNSLKPEDTAVYYCNAYSWYGYDYWGQGTQVTVSS,high polyreactivity
20,QVQLVESGGGLVQAGGSLRFSCAASGRTFYFYAMGWYRQAPGKERELVAAIRSSGGSTNYADSVKGRFTISRDNAKNTVYLQMNSLKPEDTAVYYCAAKRRAKGNYAFYYWGQGTQVTVSS,high polyreactivity
